Laboratory results reported in patent US20220175921A1.

Columns and labels:
[1] = target: human GITR, membrane bound (on activated human T cells or on 3A9-hGITR cells) (UniProt Q9Y5U5); experiment: cell-based or functional assay
[2] = target: human GITR, membrane bound (on activated human T cells or on 3A9-hGITR cells) (UniProt Q9Y5U5); experiment: FACS binding; activated human CD8 T cells; conditions: ligand

Sequence of human GITR, membrane bound (on activated human T cells or on 3A9-hGITR cells) (Q9Y5U5 26-241): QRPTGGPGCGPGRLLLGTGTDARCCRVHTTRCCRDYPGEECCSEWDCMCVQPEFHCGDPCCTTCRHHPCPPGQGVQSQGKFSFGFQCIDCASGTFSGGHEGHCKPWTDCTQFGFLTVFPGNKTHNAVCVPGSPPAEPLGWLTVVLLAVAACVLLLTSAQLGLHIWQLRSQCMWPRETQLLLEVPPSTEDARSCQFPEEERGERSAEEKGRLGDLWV
Sequence of recombinant human GITR ligand trimer (R&D Systems 6987-GL) (Q9UNG2 49-177): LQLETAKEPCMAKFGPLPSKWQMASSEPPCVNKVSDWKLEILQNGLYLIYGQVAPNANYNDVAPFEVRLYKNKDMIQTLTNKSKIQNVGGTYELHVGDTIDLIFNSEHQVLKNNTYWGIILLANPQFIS

| Substance | NFKB signaling (phospho-p65) Emax, CD4+ T cells [1] [%] | NFKB signaling (phospho-p65) Emax, CD8+ T cells [1] [%] | IC50 [2] [µg/mL] |
| --- | --- | --- | --- |
| hIgG1 Isotype Control (antibody) | 4 | 6 | – |
| recombinant human GITR ligand trimer (R&D Systems 6987-GL) (from UniProt Q9UNG2 49-177) | – | – | 0.0163 |
